Results on 167 variants are retold here after the RNAGym collection of RNA variant scans (doi:10.7554/elife.80360).

The labels stand for the following.
B1: Twister Ribozyme (parent)
chain: AACACUGCCAAUGCCGGUCCCAAGCCCGGAUAAAAGUGGAGGGGGCGG

Variants of B1 are the subject of this data set. The data set is described as follows: self-cleavage, relative activity (ratio to wild type); higher = more cleavage; co-transcriptional.
As to C25G G42A, the self-cleavage was 0.118.

As for C25G G42C, the self-cleavage stood at 0.18.

As for A23G G42A, the self-cleavage came out at 0.128.

With A23G G42U, the self-cleavage amounted to 0.121.

For A23U A35G, the self-cleavage stood at 0.17.

In the case of A23U A35C, the self-cleavage stood at 0.71.

For A23U A35U, the self-cleavage came to 0.614.

Turning to C25A G47A, the self-cleavage is 0.102.

Turning to G24C G36C, the self-cleavage turned out to be 0.0888.

With G24C G36A, the self-cleavage worked out at 0.115.

Regarding A23G G41A, the self-cleavage is 0.15.

On to A23G G41U, for which the self-cleavage was 0.0995.

For G24A, the self-cleavage amounted to 0.125.

With G24C, the self-cleavage came out at 0.102.

In the case of G24U, the self-cleavage was 0.128.

Consider C25A A33U, for which the self-cleavage came to 0.0752.

With C25A A33G, the self-cleavage was found to be 0.079.

Turning to G24C G44U, the self-cleavage was 0.0952.

As to C25A G48U, the self-cleavage was found to be 0.0867.

With C25A G48A, the self-cleavage is 0.106.

Turning to G24A G29U, the self-cleavage is 0.1.

G24A G29A: the self-cleavage stood at 0.155.

With C26G A34G, the self-cleavage stood at 0.0982.

Consider C26G A34U, for which the self-cleavage was 0.15.

Consider G24C A32U, for which the self-cleavage was 0.13.

With G24C A32G, the self-cleavage stood at 0.0875.

As for G24C A32C, the self-cleavage was 0.118.

With C25A G42U, the self-cleavage was determined as 0.0765.

For C25A G42A, the self-cleavage is 0.0675.

Turning to G24U G36U, the self-cleavage stood at 0.0805.

C25U A32U: the self-cleavage was 0.799.

With C25G A33G, the self-cleavage came out at 0.148.

As for C26A G43A, the self-cleavage was 0.124.

In the case of C26A G43U, the self-cleavage stood at 0.11.

Consider C26A G43C, for which the self-cleavage worked out at 0.111.

Turning to G24C G38C, the self-cleavage was determined as 0.144.

As for G24C G38U, the self-cleavage is 0.0774.

For the variant G24C G38A, the self-cleavage turned out to be 0.106.

For the variant C25G G39A, the self-cleavage turned out to be 0.101.

As for G24A G28U, the self-cleavage is 0.0869.

As for G24A G28C, the self-cleavage was 0.0749.

Turning to C25G C26A, the self-cleavage came out at 0.0961.

With G24A A35C, the self-cleavage is 0.102.

As to G24A A35U, the self-cleavage worked out at 0.113.

For C26A G44C, the self-cleavage turned out to be 0.212.

For G24C G43A, the self-cleavage was found to be 0.0738.

With G24U G38U, the self-cleavage turned out to be 0.0819.

Regarding G24U G38A, the self-cleavage amounted to 0.0987.

As to C25G G43C, the self-cleavage came to 0.124.

C25G G43A: the self-cleavage was 0.122.

C26A A35C: the self-cleavage amounted to 0.572.

Take G24A A32U: the self-cleavage was determined as 0.0696.

Regarding G24A A32G, the self-cleavage turned out to be 0.11.

With A23U C46G, the self-cleavage came out at 0.652.

On to A23U C46A, for which the self-cleavage is 0.325.

For A23U C46U, the self-cleavage was 0.731.

Turning to G24U G48C, the self-cleavage turned out to be 0.127.

Turning to G24A G38A, the self-cleavage turned out to be 0.101.

Turning to G24A G38C, the self-cleavage worked out at 0.106.

G24U G39C: the self-cleavage is 0.0634.

With G24U G39A, the self-cleavage is 0.0948.

Take C25A A32C: the self-cleavage came to 0.0985.

As to A23U G47U, the self-cleavage was found to be 0.163.

G24U G29U: the self-cleavage came to 0.103.

Regarding G24U G29C, the self-cleavage worked out at 0.0648.

Take C25U G28A: the self-cleavage was found to be 0.713.

As to C25A C26A, the self-cleavage turned out to be 0.0988.

As for C25A C26U, the self-cleavage was determined as 0.0948.

G24C C25A: the self-cleavage came to 0.325.

On to G24C C25G, for which the self-cleavage worked out at 0.118.

Take C25G A32C: the self-cleavage was found to be 0.261.

C25G A32G: the self-cleavage was 0.216.

As to C25U U37C, the self-cleavage is 0.133.

Consider C25U U37A, for which the self-cleavage was determined as 0.392.

Consider C26G G38C, for which the self-cleavage came to 0.202.

On to C26G A30G, for which the self-cleavage was found to be 0.214.

Consider C26A A30C, for which the self-cleavage amounted to 0.0881.

On to C26A A30U, for which the self-cleavage worked out at 0.542.

As to C26A C27G, the self-cleavage worked out at 0.0974.

As for C26A C27U, the self-cleavage worked out at 0.0741.

Consider C26A G38U, for which the self-cleavage was 0.221.

For the variant C26A G38A, the self-cleavage is 0.143.

Regarding C25U G43U, the self-cleavage is 0.182.

Take A23U U31G: the self-cleavage was 0.643.

As for G24C A40C, the self-cleavage was found to be 0.141.

With G24C A40G, the self-cleavage amounted to 0.0575.

Turning to C25U G47U, the self-cleavage came to 0.573.

For C26G A35C, the self-cleavage was found to be 0.319.

Regarding C26G A35G, the self-cleavage was 0.16.

As to A23U G39C, the self-cleavage came to 0.0667.

For the variant A23U G39A, the self-cleavage came out at 0.061.

As for C25U, the self-cleavage was determined as 0.881.

On to C25G, for which the self-cleavage is 0.458.

Turning to C25A, the self-cleavage worked out at 0.144.

C26G C27A: the self-cleavage was found to be 0.107.

On to C26G C27G, for which the self-cleavage stood at 0.106.

As for C26A G36U, the self-cleavage turned out to be 0.091.

Regarding C26A G36C, the self-cleavage worked out at 0.105.

With G24U A34C, the self-cleavage was 0.101.

Turning to G24U A34G, the self-cleavage was found to be 0.189.

Regarding G24U A35G, the self-cleavage is 0.0925.

Regarding A23U G38A, the self-cleavage worked out at 0.342.

For the variant A23U G38C, the self-cleavage was determined as 0.499.

For the variant A23U G38U, the self-cleavage was 0.236.

Take A23G G29C: the self-cleavage was determined as 0.1.

As to G24C U31G, the self-cleavage was 0.0739.

Turning to G24C U31C, the self-cleavage worked out at 0.108.

C26G: the self-cleavage was 0.449.

Take C26A: the self-cleavage turned out to be 0.706.

Take C25A A40U: the self-cleavage amounted to 0.0741.

Consider A23U G36A, for which the self-cleavage amounted to 0.132.

Take A23U G36U: the self-cleavage turned out to be 0.0806.

C26G C46U: the self-cleavage came out at 0.361.

Take C25A G28C: the self-cleavage stood at 0.146.

Regarding C25A G28U, the self-cleavage came out at 0.146.

Consider C26A G47C, for which the self-cleavage came out at 0.2.

For C26A G47A, the self-cleavage was 0.142.

G24A G39C: the self-cleavage was 0.0986.

Regarding A23U A34U, the self-cleavage came out at 0.121.

For the variant G24A A40G, the self-cleavage was determined as 0.0838.

Take G24A A40U: the self-cleavage worked out at 0.112.

In the case of C25U C46A, the self-cleavage is 0.686.

On to C25U C46U, for which the self-cleavage amounted to 0.75.

Consider C25U C46G, for which the self-cleavage amounted to 0.762.

For A23G G39U, the self-cleavage came to 0.142.

As to A23G G39C, the self-cleavage was 0.102.

Regarding G24U U37A, the self-cleavage is 0.0892.

Turning to A23U G43A, the self-cleavage worked out at 0.118.

A23U G43U: the self-cleavage was determined as 0.112.

Turning to C26A C46U, the self-cleavage worked out at 0.624.

Take C26A C46G: the self-cleavage stood at 0.358.

Consider G24C G41C, for which the self-cleavage was 0.0814.

On to G24C G41U, for which the self-cleavage was 0.0978.

In the case of G24A G41A, the self-cleavage came to 0.0508.

For the variant A23U G28A, the self-cleavage is 0.211.

For A23U G28U, the self-cleavage amounted to 0.279.

With A23U G28C, the self-cleavage is 0.249.

G24A G42U: the self-cleavage amounted to 0.091.

For the variant G24A G42C, the self-cleavage is 0.0923.

As for A23U G44C, the self-cleavage amounted to 0.578.

For the variant A23U G24A, the self-cleavage is 0.0917.

With A23U G24C, the self-cleavage stood at 0.109.

For the variant C26G G28C, the self-cleavage came to 0.142.

As for C26G G28U, the self-cleavage amounted to 0.0926.

For G24C C26U, the self-cleavage is 0.126.

Regarding G24C C26A, the self-cleavage came out at 0.0895.

Consider C25U G36C, for which the self-cleavage turned out to be 0.15.

For the variant C25U G36U, the self-cleavage was 0.123.

Turning to A23U C25U, the self-cleavage is 0.116.

A23U C25A: the self-cleavage worked out at 0.0618.

Consider C26A G42C, for which the self-cleavage came out at 0.131.

Take C26A G42A: the self-cleavage was found to be 0.132.

G24A G36C: the self-cleavage was determined as 0.12.

Take G24A U37G: the self-cleavage worked out at 0.0506.

Take G24A U37C: the self-cleavage was found to be 0.067.

For C25U G45C, the self-cleavage was found to be 0.247.

In the case of G24A G44U, the self-cleavage was 0.0885.

As for G24C G39C, the self-cleavage is 0.0715.

On to C25G A40C, for which the self-cleavage amounted to 0.0986.

For C25G A40U, the self-cleavage is 0.103.

In the case of C25G A40G, the self-cleavage is 0.129.

As for G24A A33U, the self-cleavage amounted to 0.0989.

As for G24C C46A, the self-cleavage is 0.109.

For the variant C26G G36U, the self-cleavage came out at 0.0699.

As to C26G G36A, the self-cleavage came to 0.0913.

For A23G G38C, the self-cleavage turned out to be 0.289.

Consider G24C A34G, for which the self-cleavage was found to be 0.103.
